Data taken from publication PMC3056349 (Neuron, 2011).

Target: PTPσ-CFP (protein tyrosine phosphatase receptor PTPσ expressed in COS cells) (UniProt Q13332 30-1948)
Experiment: cell-surface binding assay

Sequence of PTPσ-CFP (protein tyrosine phosphatase receptor PTPσ expressed in COS cells) (Q13332 30-1948): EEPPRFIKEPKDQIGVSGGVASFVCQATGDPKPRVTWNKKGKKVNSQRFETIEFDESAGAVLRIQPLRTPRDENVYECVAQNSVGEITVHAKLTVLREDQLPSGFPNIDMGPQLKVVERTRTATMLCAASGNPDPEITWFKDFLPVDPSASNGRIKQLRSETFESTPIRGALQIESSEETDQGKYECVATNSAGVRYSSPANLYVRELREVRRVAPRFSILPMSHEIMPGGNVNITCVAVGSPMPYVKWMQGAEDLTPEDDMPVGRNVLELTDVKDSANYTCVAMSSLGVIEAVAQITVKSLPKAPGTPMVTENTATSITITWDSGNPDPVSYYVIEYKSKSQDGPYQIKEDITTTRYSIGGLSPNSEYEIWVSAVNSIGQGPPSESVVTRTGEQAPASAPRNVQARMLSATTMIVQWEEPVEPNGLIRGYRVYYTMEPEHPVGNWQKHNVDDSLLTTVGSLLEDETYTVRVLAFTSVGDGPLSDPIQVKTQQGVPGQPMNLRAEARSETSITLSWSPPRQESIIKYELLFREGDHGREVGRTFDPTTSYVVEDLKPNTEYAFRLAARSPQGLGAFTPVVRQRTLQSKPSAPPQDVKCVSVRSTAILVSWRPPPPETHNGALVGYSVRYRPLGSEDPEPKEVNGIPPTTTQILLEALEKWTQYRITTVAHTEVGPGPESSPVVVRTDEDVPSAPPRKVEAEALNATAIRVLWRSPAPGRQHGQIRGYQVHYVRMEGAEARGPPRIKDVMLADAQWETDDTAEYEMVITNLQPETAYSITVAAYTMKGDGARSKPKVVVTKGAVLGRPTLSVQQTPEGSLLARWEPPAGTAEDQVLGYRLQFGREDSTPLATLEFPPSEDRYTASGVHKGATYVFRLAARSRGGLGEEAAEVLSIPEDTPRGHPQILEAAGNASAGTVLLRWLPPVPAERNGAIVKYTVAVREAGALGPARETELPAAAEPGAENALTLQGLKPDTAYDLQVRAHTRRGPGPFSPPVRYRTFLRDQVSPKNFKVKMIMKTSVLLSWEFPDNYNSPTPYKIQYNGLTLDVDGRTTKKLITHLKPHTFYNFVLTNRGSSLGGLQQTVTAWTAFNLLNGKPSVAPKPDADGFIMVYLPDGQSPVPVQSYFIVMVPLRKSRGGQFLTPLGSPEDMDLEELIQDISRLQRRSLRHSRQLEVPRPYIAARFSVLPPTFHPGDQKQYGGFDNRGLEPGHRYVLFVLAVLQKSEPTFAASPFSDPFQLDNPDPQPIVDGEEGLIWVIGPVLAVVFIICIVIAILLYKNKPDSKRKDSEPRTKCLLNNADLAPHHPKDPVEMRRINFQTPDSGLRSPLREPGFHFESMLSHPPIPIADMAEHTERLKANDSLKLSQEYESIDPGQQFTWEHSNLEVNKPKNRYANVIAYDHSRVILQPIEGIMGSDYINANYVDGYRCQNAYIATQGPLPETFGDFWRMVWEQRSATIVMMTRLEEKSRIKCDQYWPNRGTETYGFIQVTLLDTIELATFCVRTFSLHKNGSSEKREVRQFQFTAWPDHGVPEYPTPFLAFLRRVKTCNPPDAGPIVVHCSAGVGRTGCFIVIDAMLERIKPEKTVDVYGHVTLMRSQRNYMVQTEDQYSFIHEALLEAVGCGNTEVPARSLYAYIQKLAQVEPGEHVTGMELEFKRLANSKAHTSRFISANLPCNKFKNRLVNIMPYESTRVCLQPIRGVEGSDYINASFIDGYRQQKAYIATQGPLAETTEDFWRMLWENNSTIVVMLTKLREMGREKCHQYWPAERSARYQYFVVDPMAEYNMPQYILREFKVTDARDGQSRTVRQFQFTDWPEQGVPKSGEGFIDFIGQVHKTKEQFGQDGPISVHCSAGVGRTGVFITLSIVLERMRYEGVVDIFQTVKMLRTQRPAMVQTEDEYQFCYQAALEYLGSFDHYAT

Kd: 9.3 nM
B1: TrkC-Fc (soluble purified TrkC ectodomain fused to human immunoglobulin Fc region) (Fc fusion, rat, UniProt Q03351 32-429, looked up)
chain: CPANCVCSKTEINCRRPDDGNLFPLLEGQDSGNSNGNASINITDISRNITSIHIENWRGLHTLNAVDMELYTGLQKLTIKNSGLRNIQPRAFAKNPHLRYINLSSNRLTTLSWQLFQTLSLRELRLEQNFFNCSCDIRWMQLWQEQGEARLDSQSLYCISADGSQLPLFRMNISQCDLPEISVSHVNLTVREGDNAVITCNGSGSPLPDVDWIVTGLQSINTHQTNLNWTNVHAINLTLVNVTSEDNGFTLTCIAENVVGMSNASVALTVYYPPRVVSLVEPEVRLEHCIEFVVRGNPTPTLHWLYNGQPLRESKIIHMDYYQEGEVSEGCLLFNKPTHYNNGNYTLIAKNALGTANQTINGHFLKEPFPESTDFFDFESDASPTPPITVTHKPEEDT
